Earlier results, collected in patent US5744316A, “Isolated, tyrosinase derived peptides and uses thereof” (Ludwig Institute for Cancer Research, priority 1996, dated 1998).
Where no end group is shown, it is not given here.

Tests used:
HLA-B*4402 molecules = HLA-B*4402 molecules (Homo sapiens, UniProt P01889, A223V/A65T/A93T/A95T/D201E/D98Y/E176V/E187L/E204Q/E69K/G107R/H137Y/K202T/L105A/L119I/N104T/N87E/Q56L/Q94N/R106L/R155S/R180D/S101N/S121R/S35A/S48T/T118I/V36M/W191S/Y140D/Y91S); conditions: Coulie et al. 1995
HLA-B44 = conditions: Burrows et al. 1990

Row | Sequence | binding to HLA-B*4402 molecules (HLA-B*4402 molecules) | binding by HLA-B44 (HLA-B44)
1 | EEKLIVVLF [SEQ ID NO: 11] | binds | –
2 | EENLLDFVRF [SEQ ID NO: 9] | – | bound
